B1: MN20A10-MMAF (conjugate)
VH: QVQLVESGGGLVKPGGSLRLSCAASGFTFSTYAMSWIRQAPGKGLEWVASIGRAGSTYYSDSVKGRFTISRDNAKNSLYLQMNSLRAEDTAVYYCARGPIYNDYDEFAYWGQGTLVTVSS
VL: EIVLTQSPATLSLSPGERATLSCKSSQSVLYSSNQKNYLAWYQQKPGQAPRLLIYWASTRESGIPARFSGSGSGTDFTLTISSLEPEDFAVYYCHQYLSSLTFGGGTKVEIKR
B2: MNC2-Deruxtecan (conjugate)
VH: EVQLVESGGGLVKPGGSLRLSCAASGFTFSGYAMSWVRQAPGKGLEWVSTISSGGTYIYYPDSVKGRFTISRDNAKNSLYLQMNSLRAEDTAVYYCARLGGDNYYEYFDVWGKGTTVTVSS
VL: DIVLTQSPASLAVSPGQRATITCRASKSVSTSGYSYMHWYQQKPGQPPKLLIYLASNLESGVPARFSGSGSGTDFTLTINPVEANDTANYYCQHSRELPFTFGGGTKVEIKRT

Experiments:
[1] = system: T47D-MUC1* breast cancer cells; experiment: xCELLigence real-time killing assay (impedance); assay type: cell-based, human; conditions: for ADC concentration at which essentially all (near total) tumor cells were killed: readout 120 hours post ADC addition
Protocol: In this assay, impedance is measured in real-time. When the adherent cancer cells are killed and come off of the electrode surface, impedance (insulation) decreases. […] Either MNC2-MMAE, DAR 4.1, MN20A10-MMAE, DAR 5.8, MNC2-MMAF, DAR 3.7, MN20A10-MMAF, DAR 3.8, MNC2-Deruxtecan, DAR 7.2, or MN20A10-Deruxtecan, DAR 4.6, was then added to the cancer cells. […] Taxol and Triton are added as the positive killing control. […] Taxol and Triton are added as the positive killing control.
In this assay, impedance is measured in real-time. When the adherent cancer cells are killed and come off of the electrode surface, impedance (insulation) decreases. […] Either MNC2-Exatecan, DAR 8.2, MNC2-Deruxtecan, DAR 4.0, MNC2-MMAE, DAR 4.1, or free Exatecan at 50 μM, was then added to the cancer cells.
To assess real-time killing of target cancer cells including breast cancer cells (T47D), non-small cell lung cancer cells (NCI-H1975) and pancreatic cancer cells (HP AF II) assays were performed on an xCELLigence RTCA MP Instrument (Agilent). Target Cancer cells were seeded onto a multi-electrode well plate at a density of 5000 cells/well (100 μL of a 50,000 cells/mL stock) and incubated for 24 hr in a 37° C./5% CO2 incubator. mAb MNC2 ADCs or mAb MN20A10-ADCs were prepared as a 2× solution in corresponding growth media and 100 μL of each concentration was added to target cells. As a positive control (100% cell killing) cells were treated with either 1% triton or 1 μM Taxol instead of ADC. After 40-120 hours incubation in a 37° C./5% CO2 incubator cell killing was assessed. In this assay, impedance is measured in real-time. When the adherent cancer cells are killed and come off the electrode surface, impedance (insulation) decreases.
MNC2-ADCs and MN20A10-ADCs were also assayed for their ability to kill both low and high MUC1* expressing cells by monitoring killing in real-time using an xCELLigence instrument. In the xCelligence system, target cancer cells, which are adherent, are plated onto electrode array 96-well plates. Adherent cells insulate the electrode and increase the impedance. The number of adherent cancer cells is directly proportional to impedance. […] Therefore, increasing impedance reflects the growth of the cancer cells and decreasing impedance reflects the killing of the cancer cells.

[2] = system: T47D-wt breast cancer tumors; experiment: Breast cancer xenograft, IVIS bioluminescence; assay type: in vivo, NOD/SCID/GAMMA (NSG) mice; conditions: from Day 6, 10 mg/kg increased to 20 mg/kg, DAR 4.2
Protocol: (§1) FIGS. 57A-57F show bioluminescence photographs of female NOD/SCID/GAMMA (NSG) mice, implanted with 90-day estrogen pellets and then implanted on the right flank with 1M human breast cancer cells that were either T47D wild-type cells that express low to medium levels of MUC1* or T47D-MUC1* cells that had been engineered to express more MUC1*. Day 7 post tumor implantation, the animals were injected with MNC2-MMAE, DAR 3.9, at 5 mg/kg, but was increased to 10 mg/kg for the Day 14 and Day 20 injections.
(§2) FIGS. 58A-58F show bioluminescence photographs of female NOD/SCID/GAMMA (NSG) mice, implanted with 90-day estrogen pellets and then implanted on the right flank with 1M human breast cancer cells that were either T47D wild-type cells that express low to medium levels of MUC1* or T47D-MUC1* cells that had been engineered to express more MUC1*. Day 7 post tumor implantation, the animals were injected with MN20A10-MMAE, DAR 3.0, at 5 mg/kg, but was increased to 10 mg/kg for the Day 14 and Day 20 injections.
(§3) FIGS. 63A-63H show bioluminescence photographs of female NOD/SCID/GAMMA (NSG) mice, implanted with 90-day estrogen pellets and then implanted on the right flank with 1M human breast cancer cells that were either T47D wild-type cells that express low to medium levels of MUC1* or T47D-MUC1* cells that had been engineered to express more MUC1*. […]

[3] = system: T47D-MUC1* breast cancer tumors; experiment: Breast cancer xenograft, IVIS bioluminescence; assay type: in vivo, NOD/SCID/GAMMA (NSG) mice; conditions: from Day 6, 10 mg/kg, DAR 4.2
Protocol: as §1, §2, §3

Row | Molecule | ADC concentration at which essentially all the tumor cells are killed ([1]; readout 40 hours post ADC addition) [nM] | ADC concentration at which essentially all (near total) tumor cells were killed [1] [nM] | concentration as low as which cancer cells are potently killed ([1]; readout 0 to 120 hours, MNC2-Exatecan DAR 8.2, MNC2-Deruxtecan DAR 4.0 (FIG. 55)) | tumor burden (bioluminescence) [2] | tumor burden (bioluminescence) [3]
1 | B1 | 56 | 19 | – | – | –
2 | B2 | – | 6 | as low as 6.2 nM and even as low as 2.1 nM | greatly reduced compared to the controls | essentially eliminated by Day 26

Source: US12491259B2, “Anti-variable MUC1* antibodies and uses thereof” (Minerva Biotechnologies Corporation, priority 2022, dated 2025)
